Measurements published in paper PMC4811778 (eLife, 2016).

Biological target: T1, ElaB (E. coli, UniProt P0AEH5 1-101)
T1 construct: ElaB, E. coli, paralogue of YqjD, inner membrane-associated; source: endogenous, E. coli (MG1665) lysate, log phase and stationary phase
T1 sequence (looked up): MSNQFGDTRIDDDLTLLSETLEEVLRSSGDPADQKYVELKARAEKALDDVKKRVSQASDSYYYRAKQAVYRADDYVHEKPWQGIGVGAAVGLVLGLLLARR
Assay: cross-linking; quantitative CXMS: log phase and stationary phase E. coli (MG1665) lysates (100 µg each, 50 mM HEPES pH 8.0, 150 mM NaCl) cross-linked with [d0]-/[d6]-bAL2 at RT for 1 hr, forward and reverse labelling; pLink, pQuant
Settings: partners not purified

B1: YqjD (natural protein, E. coli, UniProt P64581 1-101, looked up)
chain: MSKEHTTEHLRAELKSLSDTLEEVLSSSGEKSKEELSKIRSKAEQALKQSRYRLGETGDAIAKQTRVAAARADEYVRENPWTGVGIGAAIGVVLGVLLSRR
notes: source: endogenous, E. coli (MG1665) lysate, log phase and stationary phase
  fold increase of the cross-link in the stationary phase over the log phase: ≥ 10 fold
